Assay results published in US20240392013A1 (STELEXIS THERAPEUTICS, published 2024).

Assays:
[1] = biological target: T1, recombinant mouse IL1RAP protein (Sino Biological, Cat #52657-M08H) (mouse, UniProt Q61730 21-359); experiment: cell-free ELISA, mouse IL1RAP coated; data not shown
T1 construct: Bought protein
T1 sequence (looked up): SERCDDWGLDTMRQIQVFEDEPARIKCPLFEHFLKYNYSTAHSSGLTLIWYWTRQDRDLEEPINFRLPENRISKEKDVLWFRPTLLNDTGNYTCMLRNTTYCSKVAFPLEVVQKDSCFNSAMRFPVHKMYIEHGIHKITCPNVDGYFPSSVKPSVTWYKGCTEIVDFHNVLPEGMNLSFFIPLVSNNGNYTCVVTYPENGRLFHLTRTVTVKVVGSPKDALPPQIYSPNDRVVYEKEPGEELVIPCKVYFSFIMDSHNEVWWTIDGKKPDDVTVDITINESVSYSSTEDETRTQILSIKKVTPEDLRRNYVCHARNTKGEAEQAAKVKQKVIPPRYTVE
Protocol: Recombinant human or mouse IL1RAP proteins (Sino Biological, Beijing, China; Cat #10121-H08H and Sino Biological, Cat #52657-M08H respectively) were diluted in PBS, pH 7.4 at concentration of 1 μg/ml, coated on high-binding 384-well clear plates and incubated overnight at 4° C. Following, plates were washed 3× with 0.05% Tween-20 in PBS, pH 7.5 and then blocked with 1% BSA in PBS for 1 hour at room temperature. After 3× washes, wells were incubated with each antibody at the highest concentration of 100 nM followed by seven serial half log dilutions (in 1% BSA and 0.05% Tween-20 in PBS) for 1 hour at room temperature. Plates were then washed 3× and incubated with […] detection antibody (Medna, TX, USA; Cat #D8212, 0.5 μg/ml diluted in 0.02% Tween-20 in PBS). After 5× washes, Supersignal ELISA Pico substrate (Thermofisher, MA, USA; Cat #37069) was applied to wells and chemiluminescent signal was read on Sprectramax L for 200 ms/well. Similarly, detection with specific κ and λ antibodies was conducted to define light chain isotyping.

[2] = biological target: T2, recombinant human IL1RAP protein, extracellular domain His-tagged (Sino Biological, Cat #10121-H08H) (human, UniProt Q9NPH3 21-367); experiment: Octet BLI; mAb captured on anti-mouse IgG Fc sensor; huIL1RAP-His analyte
T2 construct: extracellular domain; Bought protein; The Octet analyte is printed as huIL1RAP-His (Sino Biological, lot MB08MA1301) without a catalogue number; also called huIL1RAP-His; hIL1RAP; not shown: His tag
T2 sequence (looked up): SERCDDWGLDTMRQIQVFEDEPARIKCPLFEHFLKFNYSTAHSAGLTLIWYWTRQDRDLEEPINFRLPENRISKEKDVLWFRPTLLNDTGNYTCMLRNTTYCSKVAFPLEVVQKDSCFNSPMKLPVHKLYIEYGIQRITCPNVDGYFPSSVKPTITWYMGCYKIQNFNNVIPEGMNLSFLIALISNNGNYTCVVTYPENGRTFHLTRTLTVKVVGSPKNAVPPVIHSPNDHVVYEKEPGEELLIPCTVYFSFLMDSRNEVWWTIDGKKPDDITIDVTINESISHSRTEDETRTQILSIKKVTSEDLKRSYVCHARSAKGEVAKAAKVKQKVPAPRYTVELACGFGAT
Protocol: (§1) Antibodies were diluted in kinetics buffer (0.1% BSA, 0.02% Tween-20 and 0.05% NaN₃ in PBS) and loaded onto 16 channel anti-mouse IgG Fc capture sensors (AMC, Cat #2001073; Sartorius, Göttingen, Germany). Human, huIL1RAP-His (Sino Biological, lot: MB08MA1301), and monkey, cyIL1RAP-His (Lake Pharma, NY, USA; lot:16205819371) proteins were titrated starting from the highest concentration of 100 nM and followed by 50 nM and 25 nM. Purified antibodies were loaded at 5 μg/ml in kinetics buffer. The experimental parameters selected to determine the kinetic constants were Baseline for 60 s, Loading of antibody to sensor for 180 s, Association of analyte to antibody for 120 s, Dissociation for 1200 s and Regeneration in 10 mM Glycine pH 1.7 for 4×30 s.
(§2) Regeneration cycle tracking was selected for 12 cycles. Binding to human and cynomolgus IL1RAP was measured and KD (M) kinetics were calculated. Also, the disassociation rate (Kdis) (1/s) and association rate (Kon) (1/Ms) kinetics were calculated (data not shown).

[3] = biological target: T3, IL1RAP on HEK-Blue IL1β / HEK-Blue IL33 reporter cells (UniProt Q9NPH3 21-570, limits assumed); experiment: cell-based or functional assay
T3 sequence (looked up): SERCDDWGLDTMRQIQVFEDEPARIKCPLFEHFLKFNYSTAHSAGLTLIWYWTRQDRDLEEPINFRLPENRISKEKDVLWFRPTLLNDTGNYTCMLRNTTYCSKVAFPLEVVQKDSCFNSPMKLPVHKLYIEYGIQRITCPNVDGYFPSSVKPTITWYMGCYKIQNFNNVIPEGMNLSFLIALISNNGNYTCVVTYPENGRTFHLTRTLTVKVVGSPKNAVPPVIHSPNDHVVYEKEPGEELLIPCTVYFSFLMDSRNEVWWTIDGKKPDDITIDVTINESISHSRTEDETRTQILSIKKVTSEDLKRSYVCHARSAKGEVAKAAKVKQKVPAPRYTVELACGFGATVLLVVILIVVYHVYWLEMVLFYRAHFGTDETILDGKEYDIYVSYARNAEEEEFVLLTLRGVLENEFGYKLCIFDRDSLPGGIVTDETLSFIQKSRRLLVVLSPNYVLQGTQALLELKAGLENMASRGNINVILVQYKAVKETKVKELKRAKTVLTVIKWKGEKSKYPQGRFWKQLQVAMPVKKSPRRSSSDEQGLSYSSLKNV

[4] = biological target: T4, cyIL1RAP-His (Lake Pharma) (cynomolgus monkey, UniProt A0A2K5X5J5 21-367); experiment: Octet BLI; mAb captured on anti-mouse IgG Fc sensor; cyIL1RAP-His analyte
T4 construct: Bought protein (Lake Pharma, lot 16205819371); also called cynomolgus IL1RAP; monkey IL1RAP; not shown: His tag
T4 sequence: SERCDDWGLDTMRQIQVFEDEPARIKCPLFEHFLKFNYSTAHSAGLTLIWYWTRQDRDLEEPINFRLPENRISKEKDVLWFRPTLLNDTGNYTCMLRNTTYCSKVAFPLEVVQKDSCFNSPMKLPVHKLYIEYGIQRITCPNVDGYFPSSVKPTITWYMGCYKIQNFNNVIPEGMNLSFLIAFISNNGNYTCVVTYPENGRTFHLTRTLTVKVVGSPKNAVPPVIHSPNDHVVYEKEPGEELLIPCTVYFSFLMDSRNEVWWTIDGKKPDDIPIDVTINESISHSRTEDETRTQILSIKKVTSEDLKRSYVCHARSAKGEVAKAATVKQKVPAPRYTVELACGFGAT
Protocol: as §1, §2

[5] = biological target: T3, IL1RAP on HEK-Blue IL1β / HEK-Blue IL33 …; experiment: cell-based or functional assay; remark: listed apart in the source

Row | Binder | binding result [1] | Kd [2] [nM] | Response [2] | koff [2] [s⁻¹] | kon [2] [M⁻¹ s⁻¹] | IC50, HEK-BlueIL1β NFκB Reporter Assay [3] | Max % Inhibition at 200 nM, HEK-BlueIL1β NFκB Reporter Assay [3] [%] | Kd [4] [nM] | Response [4] | koff [4] [s⁻¹] | kon [4] [M⁻¹ s⁻¹] | IC50, HEK-BlueIL33 NFκB Reporter Assay [5] | Max % Inhibition at 200 nM, HEK-BlueIL33 NFκB Reporter Assay [5] [%]
1 | STLX2045 (antibody, V domains shown, Purified from hybridoma of immunized Alivamab mice; intact IgG; captured on anti-mouse IgG Fc sensors in Octet; kappa light chain; also called 74804_45C18A) VH: EVQLVESGGGLVKPGGSLRLACAATGFTFSNVWMSWVRQGSGKGLEWVGRIKSKADGGTIDYAAPVKGRFTISRDDSKNTLYLQMNSLKTEDTAMYYCTTGELLGFDYWGQGTLVTVSS VL: DIVMTQSPLSLPVTPGEPASISCRSGQSLLHSNGFNCLAWYLQKPGQSPQLLIYLGSNRASGVPDRFSGSGSGTDFTLKISRVEAEDVGVYYCMQTLQTPITFGQGTRLEIK | no binding (tested: 100 nM) | 0.648 | 0.261 | 0.000273 | 422000 | 1.93e-10 M (implied; unit not printed) | 100 | 0.863 | 0.277 | 0.000291 | 338000 | 1.37e-09 M (implied; unit not printed) | 98
2 | STLX2044 (antibody, V domains shown, Purified from hybridoma of immunized Alivamab mice; intact IgG; captured on anti-mouse IgG Fc sensors in Octet; lambda light chain; also called 74804_44J14A) VH: QVQLQESGPGLVKPSETLSLTCTVSGGSVFSYFWNWIRQPPVKGLEWIGYIDHSGGTNYNPSLKSRVTMSVDTSKNQFSLKLSSVTAADTAVYYCAREGLHDAFDIWGQGTLVTVSS VL: not shown | no binding (tested: 100 nM) | 1.23 | 0.268 | 0.000684 | 558000 | 7.92e-10 M (implied; unit not printed) | 98 | 1.68 | 0.223 | 0.00206 | 1.23e+06 | 8.12e-09 M (implied; unit not printed) | 73
3 | STLX2030 (antibody, V domains shown, Purified from hybridoma of immunized Alivamab mice; intact IgG; captured on anti-mouse IgG Fc sensors in Octet; kappa light chain; also called 74804_30O16A) VH: QVQLVQSGAEVKRPGASVKVSCKASGYTFTGYYMHWVRQAPGQGLEWMGWINPYSGGTDYAQKFQDRVTMTRDTSISTAYMELSRLRSDDTAVYYCARSYYYYGMDVWGQGITVTVSS VL: not shown | no binding (tested: 100 nM) | 2.24 | 0.153 | 0.000359 | 160000 | 2.31e-09 M (implied; unit not printed) | 98 | 2.59 | 0.169 | 0.000369 | 143000 | 1.24e-08 M (implied; unit not printed) | 76
4 | STLX2021 (antibody, V domains shown, Purified from hybridoma of immunized Alivamab mice; intact IgG; captured on anti-mouse IgG Fc sensors in Octet; lambda light chain; also called 74804_21D11A) VH: EVQVVESGGGLVKPGGSLRLSCAASGFIFSKAWMSWVRQAPGKGLEWVGRIKSKTDGGTTDYAAPVKGRFTISRDDSKNTLYLQMNSLKTEDTAVYYCTTGGYVFDYWGQGALVTVSS VL: not shown | no binding (tested: 100 nM) | 2.19 | 0.249 | 0.000478 | 218000 | 5.32e-10 M (implied; unit not printed) | 101 | 10.2 | 0.232 | 0.00259 | 254000 | 3.54e-09 M (implied; unit not printed) | 85
5 | STLX2016 (antibody, V domains shown, Purified from hybridoma of immunized Alivamab mice; intact IgG; captured on anti-mouse IgG Fc sensors in Octet; lambda light chain; also called 74804_16M09A) VH: QVQLQESGPGLVKPSETLSLTCTVSGGSISSYFWNWIRQPPGKGLEWIGYGHYSGNSNHNPSLKSRVTISVDMSKNQFSLKMSSVTAADTAMYYCAREGLHDAFDIWGQGTMVTVSS VL: not shown | no binding (tested: 100 nM) | 0.834 | 0.257 | 0.000411 | 493000 | 8.05e-10 M (implied; unit not printed) | 100 | 3.94 | 0.199 | 0.004 | 1.01e+06 | 7.66e-09 M (implied; unit not printed) | 76
6 | STLX2001N (antibody, V domains shown, Purified from hybridoma of immunized Alivamab mice; intact IgG; captured on anti-mouse IgG Fc sensors in Octet; kappa light chain; also called 74804_01N02A) VH: EVQLVQSGAEVKKPGESLKISCKGSGYSFTSYWIVWVRQMPGKGLEWMGFIYPGNSDTRYSPSFQGQVTISADQSISTAYLQWSSLKASDTATYYCARGGSYYLDYWGQGTLVTVSS VL: not shown | no binding (tested: 100 nM) | 0.803 | 0.308 | 0.000233 | 290000 | 1.72e-09 M (implied; unit not printed) | 101 | 1.23 | 0.342 | 0.000413 | 334000 | 1.7e-08 M (implied; unit not printed) | 87
7 | STLX2027 (antibody, V domains shown, Purified from hybridoma of immunized Alivamab mice; intact IgG; captured on anti-mouse IgG Fc sensors in Octet; lambda light chain; also called 74804_27I24A) VH: EVQLVESGGGLVKPGGSLRLSCAASGFTFITYSMNWVRQAPGKGLEWVSSISSISSYIYYADSVKGRFTISRDNAKNSLYLQMDSLRAEDSAVYYCAREGIVGPTGYFDSWGQGTLVTVSS VL: QSVLTQPPSVSAAPGQKVTISCSGSSSNIGNHYVSWYQQLPGTAPKLLIYDNNKRPSGIPDRFSGSKSGTSATLGITGLQTGDEADYYCGTWDSRLSAYWVFGGGTKLTVL | no binding (tested: 100 nM) | 2.13 | 0.229 | 0.000747 | 350000 | 1.96e-09 M (implied; unit not printed) | 100 | 2.82 | 0.242 | 0.00107 | 380000 | 8.31e-09 M (implied; unit not printed) | 86
